Reference: IntAct's records for PubMed 11375976

Molecular target: TERF1, P54274-2
Sequence (P54274 other isoform, or with tags, fused parts or gaps): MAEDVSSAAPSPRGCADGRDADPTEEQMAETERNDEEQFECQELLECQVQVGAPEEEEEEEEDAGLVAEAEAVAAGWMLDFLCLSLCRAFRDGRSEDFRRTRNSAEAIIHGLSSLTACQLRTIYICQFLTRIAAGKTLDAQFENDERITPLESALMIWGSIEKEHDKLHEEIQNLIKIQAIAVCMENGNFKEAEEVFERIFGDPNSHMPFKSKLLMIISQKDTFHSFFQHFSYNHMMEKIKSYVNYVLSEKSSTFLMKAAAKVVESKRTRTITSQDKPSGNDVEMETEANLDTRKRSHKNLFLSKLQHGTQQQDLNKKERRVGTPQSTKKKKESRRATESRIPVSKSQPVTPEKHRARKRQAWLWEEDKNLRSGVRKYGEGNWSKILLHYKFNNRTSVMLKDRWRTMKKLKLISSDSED

effect of a mutation on the interaction: disrupting interaction
Substance: Serine-protein kinase ATM (Homo sapiens), Q13315 D2870A;N2875K
